Assay results taken from the supplement of paper PMC12636428.

System: Saccharomyces cerevisiae
Test: transcriptional activation domain activity (GFP:mCherry ratio, weighted mean of sorted bins, harmonized to initial dataset scale) (arbitrary fluorescence ratio units); higher = stronger transcriptional activation
Conditions: beta-estradiol 1 µM; induction time 4 h
Procedure, shortened: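 Activation activity, the read-weighted mean of bin median fluorescence averaged across barcodes, was linearly mapped onto the scale of the initial dataset. It was measured for barcoded protein tiles fused to an estradiol-inducible synthetic transcription factor at URA3 in GFP-reporter yeast diploids. Cultures diluted 1:5 into SC with 1 uM beta-estradiol were held 4 hours at 30 °C, sorted into 8 bins by GFP:mCherry ratio, and barcode-sequenced, and tiles under 50 reads were discarded.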

Row | Sequence | transcriptional activation domain activity
1 | DEYGNAKIRDLRLKPVQTISDSQTVDEAVELMRDKGYDQVPVTSSTGRRLVGM | 73300
2 | KGLNGPKKEDGGDGESRKRGRPEEDEEERKEGGGGGRRARRRERLQGAAGGGS | 18600
3 | RYLKCGGHVKHFFDLSRRADLSLEWLRRYPMEAVITDQIVSWLCHICLRQMRV | 46000
4 | MWSLCILLVGLLIWYIVFFSYPPPNRIYLFSPSLGVCLVSFFFFLWGLFGGVF | 53400
5 | KAAAVVASDSDEPVEKPKPRRRNSTSSAKSGKSTKSNRSSRDKTAAGVAAGAG | 20700
6 | KIHLVNLAQVSVFFIHRVLYGIIPLFEIKTCAYFPLLVSLWHMTYILFYIVMF | 71200
7 | IRFTLPTLVFAAVQLARRFKLLEAGGWSEWARKMCSLYKFVHQIIGLLYTRVE | 62600
8 | SREGPAQSSCSSRVTEILKSSRDLKVGDVLVLGKDQRVPADVVLLKSFATEAS | 18600
9 | LLPLFFASIGFAIVSMILIFSSNVVCLLICPHQALSRIVASYLLRHDPKYLCA | 71600
10 | MHYTTLLYFIYISFNFFTLILILFFNPFFFVSILSFSFLLFLFCCCSISEVVV | 64300
11 | SRLDAIEEEEEDLAAKNEGSTSNIEVDEIDIKSRDLKVGDIVKLGKNQRVPAD | 39600
12 | MPGGWVFLMSIAFYYFILLFFLLLPMIYGFLFVCLFGVGTCFVICTFGFFPFF | 62400
13 | QEDDPMPYLSWTPTVGRNSAFVDLTEEQREELGGIEYRSLKLLLIILVCYYVG | 48300
14 | MVFFFFFFHSVEFHFFLWYLSFFRFFFVFLLFPWLDWIGRAGIGLELLLSLFI | 47400
15 | MSSDDDSAPRTKRGGKPTTKKQQKRAIARACDRCRQKKVKCDGASLAIGAVCQ | 40600
16 | MLCMTMTTCMQWLAQFMIVYSLPYMVVSIKSFTFIFFAVCTTFSFIFTLLFVP | 41900
17 | QQLRIKIDSWSYQYGVDEVIRNRNRNLLIQMYMLLPPARFWLYMKRVRIMLLN | 66500

Row | Sequence | transcriptional activation domain activity
18 | GVMIVRKRLLIAIATVYGSPDRGLRRIIQSIGKVLWRHGLLSDQFYSAGEIFS | 69800
19 | ADMILGFFFKNFVWTFILFWYQLFCQFNGTMVFDYSLVTLYNLVFTSLPIAFL | 65600
20 | EVLHLFIHFSFIFALYMLCFFLPAKHLCNLLTWYKYLFFLLSIMLFFLILIGT | 64200
21 | EGSARGGEAGKKEERQADEKEHKGRARPGRGEKDGGGRGRREEERDRKEQNGG | 34000
22 | FEFQHTRLYMAFRELEGKLLPCLIEANGLDLVIATLLSVVEKVTEVSNIRLTS | 35600
23 | FLFFFFLLLFLLYSSLPLPPFLYPSLPLCRFSLFYYYLLLWFHFPCFSPFFLF | 57900
24 | IHILHGTLQTIIAHSRAPHFLHVPCMRLPLLLLLIPPLYFEYCLLLLSPFFFA | 51200
25 | GGGTDPRHLHVVSVMLVKGVPFYGYHIGYSYFLKVSLVNPSRMFVALEQLRKP | 30000
26 | RLFALLHLHILAYISFFISSSLAYHLHLFLLLLSYFSLLFCIFVSPRLGLSSC | 66400
27 | MSTGVSSFLQYVFLFTPYFIFSYFLAVDCWCFSLPLFCLAIPSIFLFLFLFLL | 24900
28 | RCANARIVWGARVVGVGGQGEGEAKAWVDVEMAGEEGAKRVERREADFVVGCD | 37600
29 | MFTGTLLVVFMHYGWSFFLNCCLGCLVISFCFWYVKLWLLIGRCILVLCIVAR | 69000
30 | MLLALRMFEELKLFFLSFVFLSQFFFFIYLFLVHYCKWRMVTLPYSVFTFFLV | 44000
31 | VLLLLYLAFRAQTIEISIPKAKFCCYDTRVRILVPSRGYRSTYMCRISLLLGC | 19900
32 | DLVFGIIIVRSLLIPVVLVFFFTFACFHIYLSHTSFFPAFYSSILGFHPLAFS | 73300
33 | MGFEVIFFFLLLGFFIQLLFILLIILLFLLFLVFLLFCYFVILFRLCACMMLY | 47900
34 | AIATPVCAAGDFPGNLLLHHSITIPFIYVTLSFFYIFALFLFFLLSIFLVAWL | 50300
